Values belong to the molecule of their own block, whether it stands above or below them.
How the values were obtained:
[1] = target: T1, TTLL10 (Xenopus tropicalis, UniProt A0A8J0T4S7); experiment: LC-MS and MS/MS of glycine added to tubulin tails; type: biochemical; details: labelled compound (13C glycine); co-substrate human microtubules monoglycylated by TTLL8; ATP-dependent; room temperature, 20 min
T1 construct: residues 105-570; N-terminal GST tag cut with 3C protease; Sf9 baculovirus; untagged for mass spectrometry (C-terminal SNAP fusion only for microscopy)
T1 sequence (A0A8J0T4S7 105-570): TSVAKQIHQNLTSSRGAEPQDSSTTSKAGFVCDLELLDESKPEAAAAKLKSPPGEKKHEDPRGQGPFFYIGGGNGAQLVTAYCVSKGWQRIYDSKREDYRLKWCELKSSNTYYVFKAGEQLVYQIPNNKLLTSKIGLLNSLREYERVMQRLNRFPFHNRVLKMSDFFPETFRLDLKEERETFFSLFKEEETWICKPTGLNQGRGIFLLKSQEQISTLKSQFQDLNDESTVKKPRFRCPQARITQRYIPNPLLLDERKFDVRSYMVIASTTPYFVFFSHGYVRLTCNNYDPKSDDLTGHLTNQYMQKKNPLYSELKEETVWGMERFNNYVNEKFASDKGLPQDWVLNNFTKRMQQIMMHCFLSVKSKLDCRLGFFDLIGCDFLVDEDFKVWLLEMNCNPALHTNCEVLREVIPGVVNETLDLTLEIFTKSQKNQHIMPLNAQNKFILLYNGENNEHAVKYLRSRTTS

[2] = target: T2, TTLL8 (Homo sapiens, UniProt A6PVC2); experiment: LC-MS and MS/MS of glycine added to tubulin tails; type: biochemical; details: labelled compound (13C glycine); co-substrate unmodified human microtubules (taxol-stabilised); ATP-dependent; room temperature, 20 min
T2 construct: residues 39-585; N-terminal GST tag cut with 3C protease; Sf9 baculovirus
T2 sequence (A6PVC2 39-585): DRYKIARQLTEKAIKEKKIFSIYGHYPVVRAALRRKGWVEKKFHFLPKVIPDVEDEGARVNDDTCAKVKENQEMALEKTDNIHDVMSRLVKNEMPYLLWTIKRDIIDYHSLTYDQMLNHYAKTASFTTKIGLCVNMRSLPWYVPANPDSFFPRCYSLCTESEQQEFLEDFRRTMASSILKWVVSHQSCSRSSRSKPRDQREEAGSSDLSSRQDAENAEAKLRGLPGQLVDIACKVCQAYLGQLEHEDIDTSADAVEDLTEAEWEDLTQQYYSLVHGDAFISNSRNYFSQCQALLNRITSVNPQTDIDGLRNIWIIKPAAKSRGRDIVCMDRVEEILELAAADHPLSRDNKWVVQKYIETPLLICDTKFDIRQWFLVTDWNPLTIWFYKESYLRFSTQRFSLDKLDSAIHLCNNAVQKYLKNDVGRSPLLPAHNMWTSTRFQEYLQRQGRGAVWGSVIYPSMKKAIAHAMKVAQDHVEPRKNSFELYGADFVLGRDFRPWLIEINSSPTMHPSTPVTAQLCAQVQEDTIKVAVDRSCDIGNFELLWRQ

[3] = target: monoglycylated microtubules (α + 1.7G, β + 2.0G) (human) (UniProt P68363); experiment: TIRF microscopy microtubule binding assay; binding curve of TTLL10-SNAP(Alexa647) on microtubules immobilised in neutravidin-coated flow chambers; apparent Kd
[4] = target: monoglycylated microtubules (<nG>α ~ 0.8, <nG>β ~ 1.2) (human) (UniProt P68363); experiment: TIRF microscopy microtubule binding assay; 500 nM TTLL10-SNAP(647) perfused over biotinylated taxol-stabilised microtubules immobilised on neutravidin; binding buffer 60mM KCl, 10mM NaCl, 40mM PIPES pH 6.8, 2mM Tris pH 8.0, 1.5mM MgCl2, 1mM ATP; peak line-scan intensities normalised to microtubule length and to unmodified microtubules in the same chamber
[5] = target: monoglycylated microtubules (<nG>α ~ 1.1, <nG>β ~ 2.5) (human) (UniProt P68363); experiment: as above
[6] = target: monoglycylated/polyglutamylated microtubules (<nG>α ~ 0.1, <nG>β ~ 0.8; <nE>α ~ 18, <nE>β ~ 4) (human) (UniProt P68363); experiment: as above
[7] = target: polyglycylated/polyglutamylated microtubules (<nG>α ~ 0.4, <nG>β ~ 1.9, glutamylated by TTLL6) (human) (UniProt P68363); experiment: as above

Molecule: NCC(=O)O [glycine]
LC-MS and MS/MS of glycine added to tubulin tails [1]: TTLL10 can add glycines to both α- and β-tubulin as long as they were previously monoglycylated | LC-MS and MS/MS of glycine added to tubulin tails [2]: TTLL8 adds glycines to unmodified microtubules on both α- and β-tubulin

Kd [3]: 600 nM | fold recruitment against unmodified microtubules [4]: > 6 fold | percent increase in recruitment on addition of more monoglycines (against microtubules with <nG>α ~ 0.8, <nG>β ~ 1.2) [5]: 17% | fold recruitment against the same monoglycylated microtubules without glutamylation [6]: 1.8 fold | fold binding against the same polyglycylated microtubules without glutamylation [7]: 3.2 fold
B1: Alexa647-labeled TTLL10-SNAP (enzyme)
chain: T1 sequence (A0A8J0T4S7 105-570)
modifications: SNAP-Surface Alexa Fluor 647 dye conjugated to the SNAP tag

From publication doi:10.1101/2024.03.31.587457, “The TTLL10 polyglycylase is stimulated by tubulin glutamylation and inhibited by polyglycylation” (bioRxiv, 2025)
